Reference: PMC9455977, “Deciphering the Regulatory Circuits of RA3 Replication Module - Mechanisms of the Copy Number Control”

Legend:
Conditions in all cases: protein: recombinant; tags: N-terminal His6; chain copies: 2; label: none (ethidium bromide stain); blunt
[1] = target: T1, RepA (His6-RepA) (plasmid RA3 (IncU, isolated from …, UniProt Q209K0 1-98)); experiment: EMSA; no binding up to 4 uM RepA
T1 sequence: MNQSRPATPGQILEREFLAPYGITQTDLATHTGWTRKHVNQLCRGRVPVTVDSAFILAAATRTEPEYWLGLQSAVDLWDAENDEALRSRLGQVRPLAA

[2] = target: T1, RepA (His6-RepA); experiment: EMSA; bound at 0.1 uM RepA; 25 mM Tris-HCl pH 8.0, 5 mM MgCl2, 40 mM NaCl, 0.5 mg/mL BSA, 30 min at 37 C, 20 uL; 30 ng PCR fragment (0.8% agarose) or 150 ng ds oligo (10% native PAGE), 0.5x TBE
[3] = target: T1, RepA (His6-RepA); experiment: EMSA; no binding up to 4 uM RepA; 25 mM Tris-HCl pH 8.0, 5 mM MgCl2, 40 mM NaCl, 0.5 mg/mL BSA, 30 min at 37 C, 20 uL; 30 ng PCR fragment (0.8% agarose) or 150 ng ds oligo (10% native PAGE), 0.5x TBE

B1: IR2* (dsDNA)
DNA 1: AAACAGTCGACTCTGATGAGGGC
DNA 2: GCCCTCATCAGAGTCGACTGTTT
[1]
  binding result: no binding

B2: IR1 (dsDNA)
DNA 1: TTGAAGTTTACCAACTAGGTTACACTTCAA
DNA 2: TTGAAGTGTAACCTAGTTGGTAAACTTCAA
[2]
  binding result: binds

B3: IR2 (dsDNA)
DNA 1: AAACACATCATTCTGATGAGGGC
DNA 2: GCCCTCATCAGAATGATGTGTTT
[3]
  binding result: no binding
